Values of other authors as cited in patent US8691960B2, “Oxidoreductases for enantioselective reactions” (Duke University, priority 2012, dated 2014).

Conditions: literature (Dang et al. 2009; Gross et al. 2010)

Substance: HsIDH1-R132C: human cytosolic NADP+-dependent isocitrate dehydrogenase (HsIDH1) R132C cancer mutant
- lowering of Vmax for neomorphic activity relative to HsIDH1-R132H: 2 fold
